Test results from FireProtDB (doi:10.1021/bi0015717).
“And” between values parts separate entries of the source, which are not always exact repeats. Equal values may be shown once.

B1: Lysozyme C, P61626 (parent)
chain: MKALIVLGLVLLSVTVQGKVFERCELARTLKRLGMDGYRGISLANWMCLAKWESGYNTRATNYNAGDRSTDYGIFQINSRYWCNDGKTPGAVNACHLSCSALLQDNIADAVACAKRVVRDPQGIRAWVAWRNRCQNRDVRQYVQGCGV

Variants of: B1
Conditions: Homo sapiens; pH 2.65; Thermal; DSC; glycine-HCl 0.05 M; reversible: yes; structure 1LZ1; whole UniProt chain shown

| Variant | Tm [°C] | unfolding enthalpy (calorimetric) [kcal/mol] |
| --- | --- | --- |
| V20G | 56.6 | 95.6 |

Same assay, conditions: Homo sapiens; pH 2.7; 64.9 °C; Thermal; DSC; glycine-HCl 0.05 M; reversible: yes; structure 1LZ1; whole UniProt chain shown

| Variant | ddG of mutation (higher = less stable) [kcal/mol] |
| --- | --- |
| V20G | 2.29 |
| V20M | 0.31 |
| V20F | 0.86 |
| V20L | 0.05 |
| V20I | -1.1 |
| V92F | 0.29 |
| V92G | 0.22 |

Same assay, conditions: Homo sapiens; pH 2.7; Thermal; DSC; glycine-HCl 0.05 M; reversible: yes; structure 1LZ1; whole UniProt chain shown

| Variant | change of melting temperature, mutant - wild type (higher = more stable) [°C] | heat capacity change of unfolding [kcal/mol/K] | unfolding enthalpy (calorimetric) | Tm |
| --- | --- | --- | --- | --- |
| V20G | -7.5 | 1.31 | 107 kcal/mol | – |
| V20M | -1 | 1.55 | 113 kcal/mol | 63.9 °C |
| V20F | -2.7 | 1.63 | 110 kcal/mol | 62.2 °C and 64.9 °C |
| V20L | -0.2 | 1.22 | 109 kcal/mol | 64.5 °C and 64.7 °C and 64.9 °C |
| V20I | 3.4 | 1.58 | 114 kcal/mol and 108 kcal/mol | 68 °C and 68.3 °C and 64.9 °C |
| V92F | -0.9 | 1.34 | 110 kcal/mol | 64 °C and 64.9 °C |
| V92G | – | – | – | 64.9 °C |

Same assay, conditions: Homo sapiens; pH 2.83; Thermal; DSC; glycine-HCl 0.05 M; reversible: yes; structure 1LZ1; whole UniProt chain shown

| Variant | Tm [°C] | unfolding enthalpy (calorimetric) [kcal/mol] |
| --- | --- | --- |
| V20G | 59.5 | 99.7 |

Same assay, conditions: Homo sapiens; pH 3.08; Thermal; DSC; glycine-HCl 0.05 M; reversible: yes; structure 1LZ1; whole UniProt chain shown

| Variant | Tm [°C] | unfolding enthalpy (calorimetric) [kcal/mol] |
| --- | --- | --- |
| V20G | 63.8 | 105 |

Same assay, conditions: Homo sapiens; pH 3.19; Thermal; DSC; glycine-HCl 0.05 M; reversible: yes; structure 1LZ1; whole UniProt chain shown

| Variant | Tm [°C] | unfolding enthalpy (calorimetric) [kcal/mol] |
| --- | --- | --- |
| V20G | 65.7 | 108 |

Same assay, conditions: Homo sapiens; pH 3.4; Thermal; DSC; glycine-HCl 0.05 M; reversible: yes; structure 1LZ1; whole UniProt chain shown

| Variant | Tm [°C] | unfolding enthalpy (calorimetric) [kcal/mol] |
| --- | --- | --- |
| V20G | 69 | 112 |
| V92F | 75.6 | 124 |

Same assay, conditions: Homo sapiens; pH 2.52; Thermal; DSC; glycine-HCl 0.05 M; reversible: yes; structure 1LZ1; whole UniProt chain shown

| Variant | Tm [°C] | unfolding enthalpy (calorimetric) [kcal/mol] |
| --- | --- | --- |
| V20M | 60.6 | 106 |

Same assay, conditions: Homo sapiens; pH 2.73; Thermal; DSC; glycine-HCl 0.05 M; reversible: yes; structure 1LZ1; whole UniProt chain shown

| Variant | Tm [°C] | unfolding enthalpy (calorimetric) [kcal/mol] |
| --- | --- | --- |
| V20M | 64.5 | 112 |

Same assay, conditions: Homo sapiens; pH 2.94; Thermal; DSC; glycine-HCl 0.05 M; reversible: yes; structure 1LZ1; whole UniProt chain shown

| Variant | Tm [°C] | unfolding enthalpy (calorimetric) [kcal/mol] |
| --- | --- | --- |
| V20M | 68.3 | 118 |

Same assay, conditions: Homo sapiens; pH 3.09; Thermal; DSC; glycine-HCl 0.05 M; reversible: yes; structure 1LZ1; whole UniProt chain shown

| Variant | Tm [°C] | unfolding enthalpy (calorimetric) [kcal/mol] |
| --- | --- | --- |
| V20M | 70.6 | 122 |
| V20F | 68.6 | 116 |
| V92G | 70.8 | 124 |

Same assay, conditions: Homo sapiens; pH 3.31; Thermal; DSC; glycine-HCl 0.05 M; reversible: yes; structure 1LZ1; whole UniProt chain shown

| Variant | Tm [°C] | unfolding enthalpy (calorimetric) [kcal/mol] |
| --- | --- | --- |
| V20M | 74.2 | 127 |

Same assay, conditions: Homo sapiens; pH 2.68; Thermal; DSC; glycine-HCl 0.05 M; reversible: yes; structure 1LZ1; whole UniProt chain shown

| Variant | Tm [°C] | unfolding enthalpy (calorimetric) [kcal/mol] |
| --- | --- | --- |
| V20F | 62 | 106 |
| V92F | 63.6 | 108 |

Same assay, conditions: Homo sapiens; pH 2.87; Thermal; DSC; glycine-HCl 0.05 M; reversible: yes; structure 1LZ1; whole UniProt chain shown

| Variant | Tm [°C] | unfolding enthalpy (calorimetric) [kcal/mol] |
| --- | --- | --- |
| V20F | 65 | 110 |

Same assay, conditions: Homo sapiens; pH 3.22; Thermal; DSC; glycine-HCl 0.05 M; reversible: yes; structure 1LZ1; whole UniProt chain shown

| Variant | Tm [°C] | unfolding enthalpy (calorimetric) [kcal/mol] |
| --- | --- | --- |
| V20F | 71.2 | 121 |

Same assay, conditions: Homo sapiens; pH 3.05; Thermal; DSC; glycine-HCl 0.05 M; reversible: yes; structure 1LZ1; whole UniProt chain shown

| Variant | Tm [°C] | unfolding enthalpy (calorimetric) [kcal/mol] |
| --- | --- | --- |
| V20L | 70.4 | 116 |

Same assay, conditions: Homo sapiens; pH 2.5; Thermal; DSC; glycine-HCl 0.05 M; reversible: yes; structure 1LZ1; whole UniProt chain shown

| Variant | Tm [°C] | unfolding enthalpy (calorimetric) [kcal/mol] |
| --- | --- | --- |
| V20I | 65.1 | 108 |

Same assay, conditions: Homo sapiens; pH 2.92; Thermal; DSC; glycine-HCl 0.05 M; reversible: yes; structure 1LZ1; whole UniProt chain shown

| Variant | Tm [°C] | unfolding enthalpy (calorimetric) [kcal/mol] |
| --- | --- | --- |
| V20I | 72.2 | 119 |

Same assay, conditions: Homo sapiens; pH 3.13; Thermal; DSC; glycine-HCl 0.05 M; reversible: yes; structure 1LZ1; whole UniProt chain shown

| Variant | Tm [°C] | unfolding enthalpy (calorimetric) [kcal/mol] |
| --- | --- | --- |
| V20I | 75.5 | 125 |

Same assay, conditions: Homo sapiens; pH 2.84; Thermal; DSC; glycine-HCl 0.05 M; reversible: yes; structure 1LZ1; whole UniProt chain shown

| Variant | Tm [°C] | unfolding enthalpy (calorimetric) [kcal/mol] |
| --- | --- | --- |
| V92F | 66.3 | 112 |

Same assay, conditions: Homo sapiens; pH 3.1; Thermal; DSC; glycine-HCl 0.05 M; reversible: yes; structure 1LZ1; whole UniProt chain shown

| Variant | Tm [°C] | unfolding enthalpy (calorimetric) [kcal/mol] |
| --- | --- | --- |
| V92F | 70.5 | 117 |

Same assay, conditions: Homo sapiens; pH 3.23; Thermal; DSC; glycine-HCl 0.05 M; reversible: yes; structure 1LZ1; whole UniProt chain shown

| Variant | Tm [°C] | unfolding enthalpy (calorimetric) [kcal/mol] |
| --- | --- | --- |
| V92F | 72.4 | 120 |

Same assay, conditions: Homo sapiens; pH 2.53; Thermal; DSC; glycine-HCl 0.05 M; reversible: yes; structure 1LZ1; whole UniProt chain shown

| Variant | Tm [°C] | unfolding enthalpy (calorimetric) [kcal/mol] |
| --- | --- | --- |
| V92G | 61.3 | 108 |

Same assay, conditions: Homo sapiens; pH 2.95; Thermal; DSC; glycine-HCl 0.05 M; reversible: yes; structure 1LZ1; whole UniProt chain shown

| Variant | Tm [°C] | unfolding enthalpy (calorimetric) [kcal/mol] |
| --- | --- | --- |
| V92G | 68.7 | 121 |

Same assay, conditions: Homo sapiens; pH 3.3; Thermal; DSC; glycine-HCl 0.05 M; reversible: yes; structure 1LZ1; whole UniProt chain shown

| Variant | Tm [°C] | unfolding enthalpy (calorimetric) [kcal/mol] |
| --- | --- | --- |
| V92G | 74 | 129 |
